From paper PMC8782923, “A Klotho-derived peptide protects against kidney fibrosis by targeting TGF-β signaling” (Nature Communications, 2022)
Where “and” joins values, the source holds several entries; their conditions need not be identical. Equal values may be shown once.

Test system: NRK-49F cells
Assay: α-SMA mRNA induced by TGF-β1 in NRK-49F cells (qRT-PCR)
Assay type: cell-based, rat
Conditions: TGF-β1 2 ng/ml, KP1 or sKlotho 10 µg/ml, individual values, n = 4, Fig. 1b
Experimental: Normal rat kidney interstitial fibroblasts (NRK-49F) and human proximal tubular epithelial cells (HKC-8) were cultured at 37 °C. NRK-49F cells were serum-starved for 24 h and were pretreated with KP1 (10 µg/ml, 3 µM) for 1 h prior to incubation with TGF-β1 (#240-B; R&D Systems) at 2 ng/ml. Cells were collected at 45 min or 24 h after TGF-β1 treatment, respectively. Whole-cell lysates were prepared and subjected to Western blot analyses. For some experiments, cells were transiently transfected with expression vector human secreted Klotho (sKlotho) that only contains KL1 domain[48], by using Lipofectamine 2000 reagent (Invitrogen, Grand Island, NY) prior to treatment with TGF-β1.
Total RNA was isolated from NRK-49F cells by using a TRIzol RNA isolation system (Invitrogen, Carlsbad, CA). The cDNA was synthesized using 2 µg of RNA in 20 µl of reaction buffer containing AMV-RT (Promega, Madison, WI), random primers, and oligo primers at 42 °C for 60 min. Quantitative, real-time PCR (qRT-PCR) was performed using a Platinum SYBR Green qPCR Super Mix-UDG kit (Invitrogen). The sequences of the primer pairs: F: […]; R: […]. QPCR data were collected by Step one software v2.2.2.

B1: sKlotho: soluble Klotho; expression vector human secreted Klotho contains only KL1 domain (protein)
chain: EPGDGAQTWARFSRPPAPEAAGLFQGTFPDGFLWAVGSAAYQTEGGWQQHGKGASIWDTFTHHPLAPPGDSRNASLPLGAPSPLQPATGDVASDSYNNVFRDTEALRELGVTHYRFSISWARVLPNGSAGVPNREGLRYYRRLLERLRELGVQPVVTLYHWDLPQRLQDAYGGWANRALADHFRDYAELCFRHFGGQVKYWITIDNPYVVAWHGYATGRLAPGIRGSPRLGYLVAHNLLLAHAKVWHLYNTSFRPTQGGQVSIALSSHWINPRRMTDHSIKECQKSLDFVLGWFAKPVFIDGDYPESMKNNLSSILPDFTESEKKFIKGTADFFALCFGPTLSFQLLDPHMKFRQLESPNLRQLLSWIDLEFNHPQIFIVENGWFVSGTTKRDDAKYMYYLKKFIMETLKAIKLDGVDVIGYTAWSLMDGFEWHRGYSIRRGLFYVDFLSQDKMLLPKSSALFYQKLIEKNGFPPLPENQPLEGTFPCDFAWGVVDNYIQVSQLTKPISSLTKPYH
  α-SMA mRNA expression (relative): 10.7876 and 4.655 and 3.074 and 8.483
